Data as given in paper PMC12594925 (Nature Communications, 2025).

Experiments:
DOR-MOR (DM) heterodimer = DOR-MOR (DM) heterodimer (Rattus norvegicus, UniProt P33533+P33535); type: binding; conditions: for Effect on DM heterodimerization: DOR and MOR at 0.5-1.0 spots/µm2
DOR = DOR (Rattus norvegicus, UniProt P33533); test: Colocalization of expressed TM peptides with WT-DOR; type: binding; conditions: all molecules expressed at 0.5–1.0 fluorescent spots/µm2
MOR = MOR (Rattus norvegicus, UniProt P33535); test: Colocalization of expressed TM peptides with WT-MOR; conditions: both expressed at 0.5–1.0 fluorescent spots/µm2
Sequence of MOR (P33535 whole entry): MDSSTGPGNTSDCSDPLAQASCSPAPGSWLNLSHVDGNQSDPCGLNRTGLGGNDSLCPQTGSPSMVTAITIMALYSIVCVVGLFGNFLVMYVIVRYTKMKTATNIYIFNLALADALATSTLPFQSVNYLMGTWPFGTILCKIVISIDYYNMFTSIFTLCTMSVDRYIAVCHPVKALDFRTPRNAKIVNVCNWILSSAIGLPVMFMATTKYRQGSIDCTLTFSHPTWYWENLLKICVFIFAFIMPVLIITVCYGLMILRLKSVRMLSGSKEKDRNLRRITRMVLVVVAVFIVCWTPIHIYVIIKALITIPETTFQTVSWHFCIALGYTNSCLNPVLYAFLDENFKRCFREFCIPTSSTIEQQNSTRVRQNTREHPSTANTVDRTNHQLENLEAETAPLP

DOR-KOR (DK) heterodimer = DOR-KOR (DK) heterodimer (Rattus norvegicus, UniProt P33533+P34975); test: DK colocalization index, two-color single-molecule TIRF imaging; type: binding
Sequence of DOR-KOR (DK) heterodimer (P33533 whole entry): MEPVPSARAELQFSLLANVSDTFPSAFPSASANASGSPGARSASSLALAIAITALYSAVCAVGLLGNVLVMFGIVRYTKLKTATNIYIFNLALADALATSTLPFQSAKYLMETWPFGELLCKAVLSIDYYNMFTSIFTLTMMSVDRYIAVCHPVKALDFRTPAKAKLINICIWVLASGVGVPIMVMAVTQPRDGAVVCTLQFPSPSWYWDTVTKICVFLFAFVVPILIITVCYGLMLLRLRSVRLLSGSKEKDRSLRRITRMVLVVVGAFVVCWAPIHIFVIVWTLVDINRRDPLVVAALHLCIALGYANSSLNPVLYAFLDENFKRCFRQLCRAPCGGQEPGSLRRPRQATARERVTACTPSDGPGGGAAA
Sequence of DOR-KOR (DK) heterodimer (P34975 whole entry): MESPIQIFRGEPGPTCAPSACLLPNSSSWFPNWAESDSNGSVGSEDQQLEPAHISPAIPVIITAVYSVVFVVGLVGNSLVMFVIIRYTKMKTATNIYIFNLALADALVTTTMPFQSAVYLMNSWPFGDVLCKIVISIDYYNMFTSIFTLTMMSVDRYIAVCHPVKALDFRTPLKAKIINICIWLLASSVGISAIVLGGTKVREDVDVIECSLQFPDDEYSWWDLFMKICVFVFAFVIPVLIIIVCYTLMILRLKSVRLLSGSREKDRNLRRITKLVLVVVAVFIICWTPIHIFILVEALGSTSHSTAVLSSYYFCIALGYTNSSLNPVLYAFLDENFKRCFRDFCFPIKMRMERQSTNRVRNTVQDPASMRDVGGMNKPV

DOR-MOR = DOR-MOR (Rattus norvegicus, UniProt P33535); test: cAMPinG1 cAMP inhibition assay, cells expressing DOR-MOR; type: cell-based; conditions: 7 µM forskolin then 50 nM DAMGO; MOR and DOR at 5-10 fluorescent spots/µm2
Sequence of DOR-MOR (P33535 whole entry): as the sequence (P33535 whole entry) above

MOR in M-cells = MOR in M-cells (Rattus norvegicus, UniProt P33535); test: Ca2+ mobilization via Gqi5; type: cell-based; conditions: [FMax-Fb]/Fb of Fluo-4
Sequence of MOR in M-cells (P33535 whole entry): as above

KOR in K-cells = KOR in K-cells (Rattus norvegicus, UniProt P34975); test: Ca2+ mobilization via Gqi5; type: cell-based
Sequence of KOR in K-cells (P34975 whole entry): as the sequence (P34975 whole entry) above

MOR and DOR in MD-cells = MOR and DOR in MD-cells (Rattus norvegicus, UniProt P33535); test: Ca2+ mobilization via Gqi5; type: cell-based; conditions: increase greater with DAMGO than morphine
Sequence of MOR and DOR in MD-cells (P33535 whole entry): as the sequence (P33535 whole entry) above

DOR in D-cells = DOR in D-cells (Rattus norvegicus, UniProt P33533)
Sequence of DOR in D-cells (P33533 whole entry): as the sequence (P33533 whole entry) above

MOR-MOR (MM) homodimer = MOR-MOR (MM) homodimer (Rattus norvegicus, UniProt P33535); conditions: cited from earlier work
Sequence of MOR-MOR (MM) homodimer (P33535 whole entry): as the sequence (P33535 whole entry) above

Sequence of DOR-MOR (DM) heterodimer (P33533 whole entry): as the sequence (P33533 whole entry) above
Sequence of DOR-MOR (DM) heterodimer (P33535 whole entry): as the sequence (P33535 whole entry) above
Sequence of DOR (P33533 whole entry): as the sequence (P33533 whole entry) above

## Nterm-TM1^MOR: TM1^MOR construct also containing amino acids 53-70 before the TM1 domain (GGRDSLCPPTGSPSMITAITIMALYSIVCVVGLFGNFLVMYVIVRYT; UniProt P35372 53-99, looked up, fragment)
DOR-MOR (DM) heterodimer
  Effect on DM heterodimerization: suppressed DM heterodimerization in an expression level-dependent manner
DOR
  Colocalization with WT-DOR: colocalized with DOR, like the full-length MOR

## TM1^DOR: DOR TM1 peptide expressed in the PM (ITALYSAVCAVGLLGNVLVMFGIVRYTKM; UniProt P41143 52-80, looked up, fragment)
MOR
  Colocalization with WT-MOR: moderately colocalized with MOR

## TM1^MOR: membrane-integral peptide, MOR TM1 (amino acids 71-99), expressed in the PM (ITIMALYSIVCVVGLFGNFLVMYVIVRYT; UniProt P35372 71-99, looked up, fragment)
DOR-MOR (DM) heterodimer
  Effect on DM heterodimerization: suppressed DM heterodimerization in an expression level-dependent manner
DOR
  Colocalization with WT-DOR: colocalized with DOR, like the full-length MOR

## EL3-domain peptide of MOR: peptide with the MOR EL3 sequence (IIKALVTIPETTFQTV; UniProt P35372 303-318, looked up, fragment)
DOR-MOR (DM) heterodimer; soluble EL3-domain peptides (Supplementary Fig. 2b)
  Blocking of DM heterodimers: failed to block DM heterodimers
DOR-KOR (DK) heterodimer
  Blocking of DK heterodimerization (DK colocalization index): but not that of MOR, block DK heterodimerization

## C[C@@H](NC(=O)[C@@H](N)Cc1ccc(O)cc1)C(=O)NCC(=O)N(C)[C@@H](Cc1ccccc1)C(=O)NCCO [DAMGO]
DOR-MOR
  DAMGO-induced cAMP concentration decrease via Gi: greater when DOR was co-expressed
MOR in M-cells
  Ca2+ signal induced by M-agonist: induced comparable Ca²⁺ signals
KOR in K-cells
  Ca2+ response to M-agonist: No response was evident
MOR and DOR in MD-cells
  Ca2+ response to M-agonist compared to M-cells: enhanced Ca²⁺ responses
DOR in D-cells
  Ca2+ response to M-agonist: No response was evident
MOR-MOR (MM) homodimer
  Effect on MM homodimerization and MM dimer lifetime: enhanced MM homodimerization and slightly elongated the MM dimer lifetime
